# According to article PMC9127587, “Antibody recognition of complement factor H reveals a flexible loop involved in atypical hemolytic uremic syndrome pathogenesis” (The Journal of Biological Chemistry, 2022):
# Key:
# [1] = target: CFH18-20 (human complement factor H CCP18-20) with myc tag and His-tag (human) (UniProt P08603); assay: ITC; CFH18-20 in the cell (5-15 uM), VHH4 or mutants in the syringe (50-150 uM), 20 injections; PBS pH 7.4, 25 °C; iTC200
# [2] = target: T1, CFH18-20 (human complement factor H CCP18-20) with His-tag only (Homo sapiens, UniProt P08603); assay: crystal structure; complex of CFH18-20 with His-tag and VHH4 mixed at 1:1.2 and purified by SEC; crystals at 20 °C in 200 mM sodium phosphate monobasic, 20% PEG 3350; 2.6 Å; details: both partners purified
# T1 construct: complement factor H (CFH), human, domains CCP18-20; Construct for crystallization; Domain CCP18 was not observed in the crystal structure; also called CFH18-20 with His-tag; source: Expi293 cells, transfected, purified from the supernatant (Ni-NTA, SEC); not shown: His-tag, C-terminal, kept
# [3] = target: CFH18-20 (human complement factor H CCP18-20) with myc tag and His-tag (human) (UniProt P08603); assay: SPR; CFH18-20 (or W1183A) immobilised on a CM5 chip by amine coupling at around 300 RU; VHH4 or its mutants injected as analyte at 30 uL/min; single-cycle kinetics; PBS pH 7.4, Tween 20 (0.005%), 25 °C; Biacore 8K
# [4] = target: CFH18-20 W1183A_(CCP20) (human) (UniProt P08603); assay: as above
# [5] = target: T2, CFH18-20 (human complement factor H CCP18-20) with myc tag and His-tag (Homo sapiens, UniProt P08603); assay: ITC; CFH18-20 in the cell (5-15 uM), VHH4 or mutants in the syringe (50-150 uM), 20 injections; PBS pH 7.4, 25 °C; iTC200; details: both partners purified
# T2 construct: complement factor H (CFH), human, domains CCP18-20; Construct for SPR and ITC; PDB 7WKI holds the His-only form of the same protein; also called CFH18-20 WT; CFH CCP18-20; source: Expi293 cells, transfected, purified from the supernatant (Ni-NTA, SEC); not shown: myc, C-terminal, kept; His-tag, C-terminal, kept
# [6] = target: T2, CFH18-20 (human complement factor H …); assay: SPR; CFH18-20 (or W1183A) immobilised on a CM5 chip by amine coupling at around 300 RU; VHH4 or its mutants injected as analyte at 30 uL/min; single-cycle kinetics; PBS pH 7.4, Tween 20 (0.005%), 25 °C; Biacore 8K; details: both partners purified
# Sequence of CFH18-20 (human complement factor H CCP18-20) with myc tag and His-tag (human) (P08603 1046-1231): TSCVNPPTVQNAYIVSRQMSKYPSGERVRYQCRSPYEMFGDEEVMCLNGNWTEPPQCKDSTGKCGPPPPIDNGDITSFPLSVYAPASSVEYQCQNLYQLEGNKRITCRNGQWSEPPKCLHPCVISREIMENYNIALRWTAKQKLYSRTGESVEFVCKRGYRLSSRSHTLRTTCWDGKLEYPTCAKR
# T2 sequence (P08603 1046-1231): as above
# Sequence of CFH18-20 W1183A_(CCP20) (human) (P08603 1046-1231 W1183A): as the sequence (P08603 1046-1231) above, with W138A counted along it
# T1 sequence (P08603 1046-1231): as the sequence (P08603 1046-1231) above
Binder,Kd [1] [nM],dH [1] [kJ/mol],stoichiometry N [1],binding result [2],Kd [3] [nM],koff [3] [s⁻¹],kon [3] [M⁻¹ s⁻¹],Kd [4] [nM],Kd [5] [nM],dH [5] [kJ/mol],stoichiometry N [5],Kd [6] [nM],koff [6] [s⁻¹],kon [6] [M⁻¹ s⁻¹]
"VHH4 (VHH, alpaca VHH selected by phage display; CDR3 is Ala99-Tyr122; Disulfide bond between Cys50 and Cys106; also called VHH4 WT; WT; source: E. coli BL21 (DE3), purified (Ni-NTA, SEC)) VHH: QVQLVESGGGLVQAGGSLRLSCAASGLTVDDYAIGWFRQAPGKEREGVSCISSSNGSTYYADSVKGRFTISSDNAKNTAYLQMNSLKPEDTAVYYCAAAVSPNLECGTGPFGIYASYYGMDYWGQGTQVTVSS",2.01,-121,0.895,binds,0.00171,5.53e-08,31400,> 1000,,,,,,
VHH4 Y117A (VHH) VHH: QVQLVESGGGLVQAGGSLRLSCAASGLTVDDYAIGWFRQAPGKEREGVSCISSSNGSTYYADSVKGRFTISSDNAKNTAYLQMNSLKPEDTAVYYCAAAVSPNLECGTGPFGIYASAYGMDYWGQGTQVTVSS,5.87,-117,0.933,,0.498,5.39e-07,11300,,,,,,,
VHH4 W123A (VHH) VHH: QVQLVESGGGLVQAGGSLRLSCAASGLTVDDYAIGWFRQAPGKEREGVSCISSSNGSTYYADSVKGRFTISSDNAKNTAYLQMNSLKPEDTAVYYCAAAVSPNLECGTGPFGIYASYYGMDYAGQGTQVTVSS,3.92,-87.7,0.866,,5.05,0.000159,31200,,,,,,,
VHH4 P110A (VHH) VHH: QVQLVESGGGLVQAGGSLRLSCAASGLTVDDYAIGWFRQAPGKEREGVSCISSSNGSTYYADSVKGRFTISSDNAKNTAYLQMNSLKPEDTAVYYCAAAVSPNLECGTGAFGIYASYYGMDYWGQGTQVTVSS,5.03,-125,0.838,,0.504,7.11e-06,9210,,,,,,,
VHH4 P102A (VHH) VHH: QVQLVESGGGLVQAGGSLRLSCAASGLTVDDYAIGWFRQAPGKEREGVSCISSSNGSTYYADSVKGRFTISSDNAKNTAYLQMNSLKPEDTAVYYCAAAVSANLECGTGPFGIYASYYGMDYWGQGTQVTVSS,4.11,-124,0.961,,0.219,4.07e-06,23700,,,,,,,
VHH4 T108A (VHH) VHH: QVQLVESGGGLVQAGGSLRLSCAASGLTVDDYAIGWFRQAPGKEREGVSCISSSNGSTYYADSVKGRFTISSDNAKNTAYLQMNSLKPEDTAVYYCAAAVSPNLECGAGPFGIYASYYGMDYWGQGTQVTVSS,8.79,-114,0.924,,0.146,2.57e-06,17900,,,,,,,
"VHH4 L104A (VHH, as the VHH chain of m4 (PDB 7WKI) with the stated change; also called L104A_(VHH4); Leu104A_(VHH4); source: E. coli BL21 (DE3), purified (Ni-NTA, SEC), as the wildtype) VHH: QVQLVESGGGLVQAGGSLRLSCAASGLTVDDYAIGWFRQAPGKEREGVSCISSSNGSTYYADSVKGRFTISSDNAKNTAYLQMNSLKPEDTAVYYCAAAVSPNAECGTGPFGIYASYYGMDYWGQGTQVTVSS",,,,,,,,,166 ± 40.3,-102 ± 4.14,0.947 ± 0.061,44.1 ± 2.3,0.000489,11200
"VHH4 Y118A (VHH, as the VHH chain of m4 (PDB 7WKI) with the stated change; also called Y118A_(VHH4); Tyr118A_(VHH4); source: E. coli BL21 (DE3), purified (Ni-NTA, SEC), as the wildtype) VHH: QVQLVESGGGLVQAGGSLRLSCAASGLTVDDYAIGWFRQAPGKEREGVSCISSSNGSTYYADSVKGRFTISSDNAKNTAYLQMNSLKPEDTAVYYCAAAVSPNLECGTGPFGIYASYAGMDYWGQGTQVTVSS",,,,,,,,,410 ± 26.4,-81.3 ± 1.38,0.947 ± 0.041,2200 ± 732,0.0298,15800
VHH4 Y95A (VHH) VHH: QVQLVESGGGLVQAGGSLRLSCAASGLTVDDYAIGWFRQAPGKEREGVSCISSSNGSTYYADSVKGRFTISSDNAKNTAYLQMNSLKPEDTAVYACAAAVSPNLECGTGPFGIYASYYGMDYWGQGTQVTVSS,2.27,-118,0.842,,0.166,4.42e-06,30400,,,,,,,
VHH4 G119A (VHH) VHH: QVQLVESGGGLVQAGGSLRLSCAASGLTVDDYAIGWFRQAPGKEREGVSCISSSNGSTYYADSVKGRFTISSDNAKNTAYLQMNSLKPEDTAVYYCAAAVSPNLECGTGPFGIYASYYAMDYWGQGTQVTVSS,7.26,-81.2,0.865,,9.18,0.000611,62800,,,,,,,
"VHH4 D121A (VHH, as the VHH chain of m4 (PDB 7WKI) with the stated change; also called D121A_(VHH4); Asp121A_(VHH4); source: E. coli BL21 (DE3), purified (Ni-NTA, SEC), as the wildtype) VHH: QVQLVESGGGLVQAGGSLRLSCAASGLTVDDYAIGWFRQAPGKEREGVSCISSSNGSTYYADSVKGRFTISSDNAKNTAYLQMNSLKPEDTAVYYCAAAVSPNLECGTGPFGIYASYYGMAYWGQGTQVTVSS",,,,,,,,,361 ± 64.9,-123 ± 4.77,1 ± 0.019,127 ± 30,0.000545,4340
